What was measured:
Assay in all cases: cell_activity
[1] = system: T1, scTrex2-SC_CAPNS1 (engineered (human TREX2 fusion)); details: 293H endogenous locus
T1 sequence: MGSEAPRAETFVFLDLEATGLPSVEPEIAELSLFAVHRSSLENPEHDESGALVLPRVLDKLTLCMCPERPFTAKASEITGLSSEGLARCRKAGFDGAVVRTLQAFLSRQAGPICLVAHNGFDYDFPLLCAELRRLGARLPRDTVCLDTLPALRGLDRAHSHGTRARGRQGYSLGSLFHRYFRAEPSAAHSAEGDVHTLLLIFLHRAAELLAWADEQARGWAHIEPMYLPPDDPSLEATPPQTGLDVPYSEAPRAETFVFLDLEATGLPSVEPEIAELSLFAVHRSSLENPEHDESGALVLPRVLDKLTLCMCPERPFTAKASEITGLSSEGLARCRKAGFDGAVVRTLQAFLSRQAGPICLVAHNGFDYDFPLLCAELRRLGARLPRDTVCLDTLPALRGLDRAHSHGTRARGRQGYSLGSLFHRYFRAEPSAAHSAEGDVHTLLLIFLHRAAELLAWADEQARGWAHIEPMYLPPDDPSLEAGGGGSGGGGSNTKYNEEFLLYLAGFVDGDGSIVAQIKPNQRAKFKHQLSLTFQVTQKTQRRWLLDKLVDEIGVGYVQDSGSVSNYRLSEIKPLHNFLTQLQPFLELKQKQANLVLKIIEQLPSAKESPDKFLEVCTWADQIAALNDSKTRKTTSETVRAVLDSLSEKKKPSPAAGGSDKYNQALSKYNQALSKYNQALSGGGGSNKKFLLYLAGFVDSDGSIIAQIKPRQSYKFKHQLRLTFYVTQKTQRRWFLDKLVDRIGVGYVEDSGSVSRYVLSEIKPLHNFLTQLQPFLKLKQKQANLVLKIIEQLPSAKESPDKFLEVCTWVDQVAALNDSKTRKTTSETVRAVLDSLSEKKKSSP

[2] = system: T2, SC_CAPNS1 single-chain meganuclease (engineered); details: 293H endogenous locus; 18.25 with TREX2, 25.4 with scTREX2
T2 sequence: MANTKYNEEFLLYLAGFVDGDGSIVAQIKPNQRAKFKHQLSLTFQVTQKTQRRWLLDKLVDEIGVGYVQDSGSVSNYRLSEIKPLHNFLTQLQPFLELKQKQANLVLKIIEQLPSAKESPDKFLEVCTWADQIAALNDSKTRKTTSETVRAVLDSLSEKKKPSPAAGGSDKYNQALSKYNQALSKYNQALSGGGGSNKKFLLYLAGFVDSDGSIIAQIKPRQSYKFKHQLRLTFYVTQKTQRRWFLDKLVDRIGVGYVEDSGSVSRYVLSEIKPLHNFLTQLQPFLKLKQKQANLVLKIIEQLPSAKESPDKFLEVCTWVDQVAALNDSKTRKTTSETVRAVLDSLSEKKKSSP

[3] = system: T3, SC_RAG single-chain meganuclease (engineered); details: 293H endogenous locus; 4.69 with TREX2, 5.41 with scTREX2
T3 sequence: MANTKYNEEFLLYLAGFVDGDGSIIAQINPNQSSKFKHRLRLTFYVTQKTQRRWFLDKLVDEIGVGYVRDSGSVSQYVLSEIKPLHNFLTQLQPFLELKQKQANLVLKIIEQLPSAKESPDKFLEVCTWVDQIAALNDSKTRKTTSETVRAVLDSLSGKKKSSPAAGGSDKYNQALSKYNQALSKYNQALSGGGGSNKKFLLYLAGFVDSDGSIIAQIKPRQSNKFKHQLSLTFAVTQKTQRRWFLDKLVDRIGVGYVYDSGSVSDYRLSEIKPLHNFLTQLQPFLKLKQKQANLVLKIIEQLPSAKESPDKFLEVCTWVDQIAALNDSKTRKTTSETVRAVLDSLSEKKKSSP

[4] = system: T4, scTrex2-SC_RAG (engineered (human TREX2 fusion)); details: 293H endogenous locus
T4 sequence: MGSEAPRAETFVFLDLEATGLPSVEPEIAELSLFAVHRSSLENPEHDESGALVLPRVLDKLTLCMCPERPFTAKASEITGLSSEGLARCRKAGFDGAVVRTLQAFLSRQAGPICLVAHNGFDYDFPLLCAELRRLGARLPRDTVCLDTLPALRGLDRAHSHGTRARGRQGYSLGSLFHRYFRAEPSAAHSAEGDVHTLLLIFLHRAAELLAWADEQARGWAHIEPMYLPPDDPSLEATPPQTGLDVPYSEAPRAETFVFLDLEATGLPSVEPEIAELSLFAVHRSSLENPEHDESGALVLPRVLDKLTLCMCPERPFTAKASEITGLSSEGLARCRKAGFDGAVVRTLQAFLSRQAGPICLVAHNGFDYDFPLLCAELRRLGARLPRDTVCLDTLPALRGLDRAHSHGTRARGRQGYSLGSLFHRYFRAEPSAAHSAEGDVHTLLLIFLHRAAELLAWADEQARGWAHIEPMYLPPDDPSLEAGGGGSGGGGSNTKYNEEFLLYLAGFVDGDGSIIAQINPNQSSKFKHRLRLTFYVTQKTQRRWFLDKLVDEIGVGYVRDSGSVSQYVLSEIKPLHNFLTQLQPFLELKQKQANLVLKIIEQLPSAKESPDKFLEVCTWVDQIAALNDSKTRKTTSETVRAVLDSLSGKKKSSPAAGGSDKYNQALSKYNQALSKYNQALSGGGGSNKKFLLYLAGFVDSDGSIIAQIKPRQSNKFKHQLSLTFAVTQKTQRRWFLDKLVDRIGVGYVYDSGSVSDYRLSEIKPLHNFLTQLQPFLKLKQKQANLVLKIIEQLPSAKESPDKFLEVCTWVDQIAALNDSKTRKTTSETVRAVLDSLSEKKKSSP

Substance | activity (% targeted mutagenesis) [1] | activity (% targeted mutagenesis) [2] | activity (% targeted mutagenesis) [3] | activity (% targeted mutagenesis) [4]
CAPNS1 locus meganuclease target | 35.8 | 15.2 | – | –
RAG1 locus target | – | – | 1.4 | 8.42

— patent US20140234975
